Paper PMC10765799

Key:
Gal4 AD-FAF1 WT, Q9UNN5 = biological target: T1, Gal4 AD-FAF1 WT, Q9UNN5; experiment: yeast two-hybrid, quantitative liquid β-galactosidase assay; conditions: chain shown with the change; yeast strain L40; parent: est. 1500000; read off a plot
T1 chain: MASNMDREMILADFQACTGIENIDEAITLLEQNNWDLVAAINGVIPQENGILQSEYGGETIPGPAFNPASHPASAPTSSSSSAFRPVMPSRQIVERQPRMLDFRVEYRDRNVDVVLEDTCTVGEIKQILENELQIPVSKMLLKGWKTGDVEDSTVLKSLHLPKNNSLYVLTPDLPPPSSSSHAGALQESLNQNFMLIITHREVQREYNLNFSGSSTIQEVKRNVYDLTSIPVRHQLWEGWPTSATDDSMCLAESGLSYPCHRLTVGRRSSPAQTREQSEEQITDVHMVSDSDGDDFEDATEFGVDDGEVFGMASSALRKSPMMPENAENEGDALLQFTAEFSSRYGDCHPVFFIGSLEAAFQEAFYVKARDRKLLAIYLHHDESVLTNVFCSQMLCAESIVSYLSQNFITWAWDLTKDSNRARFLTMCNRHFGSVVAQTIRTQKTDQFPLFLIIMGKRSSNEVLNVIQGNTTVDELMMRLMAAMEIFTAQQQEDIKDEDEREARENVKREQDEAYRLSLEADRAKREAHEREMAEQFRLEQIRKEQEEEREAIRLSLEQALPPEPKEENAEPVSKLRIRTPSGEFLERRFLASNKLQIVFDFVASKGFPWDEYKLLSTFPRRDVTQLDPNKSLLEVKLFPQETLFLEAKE

[1] = biological target: T2, Gal4 AD-mSin3A (full-length), Q60520; experiment: as above; conditions: chain shown with the change; yeast strain L40; parent: est. 60000; read off a plot
T2 chain: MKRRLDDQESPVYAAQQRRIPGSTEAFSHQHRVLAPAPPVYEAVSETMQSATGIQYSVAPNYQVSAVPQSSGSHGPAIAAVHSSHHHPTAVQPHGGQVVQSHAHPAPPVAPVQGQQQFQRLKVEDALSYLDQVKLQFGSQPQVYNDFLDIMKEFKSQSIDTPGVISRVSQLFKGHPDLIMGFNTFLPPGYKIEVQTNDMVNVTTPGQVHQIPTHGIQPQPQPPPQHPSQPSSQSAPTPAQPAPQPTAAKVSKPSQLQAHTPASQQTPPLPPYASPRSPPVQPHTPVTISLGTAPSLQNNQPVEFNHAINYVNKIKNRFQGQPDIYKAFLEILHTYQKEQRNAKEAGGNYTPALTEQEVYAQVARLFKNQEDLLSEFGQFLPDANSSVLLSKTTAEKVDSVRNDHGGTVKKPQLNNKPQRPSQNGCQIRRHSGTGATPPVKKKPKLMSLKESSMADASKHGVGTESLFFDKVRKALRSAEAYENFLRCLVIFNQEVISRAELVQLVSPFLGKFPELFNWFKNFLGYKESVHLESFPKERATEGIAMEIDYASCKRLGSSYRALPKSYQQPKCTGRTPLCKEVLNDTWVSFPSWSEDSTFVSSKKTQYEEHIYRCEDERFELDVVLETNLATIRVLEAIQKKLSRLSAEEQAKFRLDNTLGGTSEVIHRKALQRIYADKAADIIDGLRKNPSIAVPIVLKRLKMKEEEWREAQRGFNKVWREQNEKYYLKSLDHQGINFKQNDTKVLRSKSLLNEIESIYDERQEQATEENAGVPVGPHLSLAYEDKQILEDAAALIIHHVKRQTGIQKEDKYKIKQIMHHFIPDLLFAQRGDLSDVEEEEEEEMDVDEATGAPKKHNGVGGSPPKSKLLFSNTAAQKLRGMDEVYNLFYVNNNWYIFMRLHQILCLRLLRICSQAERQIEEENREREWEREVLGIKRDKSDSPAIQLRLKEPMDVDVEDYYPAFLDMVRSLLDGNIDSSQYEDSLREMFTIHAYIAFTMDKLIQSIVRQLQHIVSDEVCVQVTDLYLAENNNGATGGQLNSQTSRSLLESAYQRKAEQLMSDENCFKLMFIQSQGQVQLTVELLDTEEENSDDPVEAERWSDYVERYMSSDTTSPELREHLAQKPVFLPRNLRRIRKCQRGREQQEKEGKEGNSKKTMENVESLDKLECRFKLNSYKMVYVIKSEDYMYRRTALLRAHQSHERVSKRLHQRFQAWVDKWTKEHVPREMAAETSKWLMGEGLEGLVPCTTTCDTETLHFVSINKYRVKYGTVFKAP

response (Gal4 AD-FAF1 WT, Q9UNN5): 43000
response [1]: 190000
B1: LexA-SAP130 C-terminal region (amino acids 760-1048) WT, Q9H0E3 K794A; K878A; K932A (protein)
chain: APPPSVTVGGSLSSVLGPPVPEIKVAEEVEPMDIMRPVSAVPPLATNTVSPSLALLANNLSMPTSDLPPGASPRKKPRKQQHVISTEEGDMMETNSTDDEKSTAKSLLVAAEKRKSPPKEYIDEEGVRYVPVRPRPPITLLRHYRNPWKAAYHHFQRYSDVRVAEEKKAMLQEIANQKGVSCRAQGWKVHLCAAQLLQLTNLEHDVYERLTNLQEGIIPKKKAATDDDLHRINELIQGNMQRCKLVMDQISEARDSMLKVLDHKDRVLKLLNKNGTVKKVSKLKRKEKV
